From paper PMC8979313

Target: T1, Pr(brC)2 (UniProt P03069 226-249+=GC, internal_change)
T1 chain: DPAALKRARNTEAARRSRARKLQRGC
Experiment: EMSA

B1: Random (dsDNA)
DNA 1: AGCGCACGTCCTGCACGTC
DNA 2: GACGTGCAGGACGTGCGCT
B1: no binding.
